Biological target: the molecule itself
Test: crystal structure; RsaA 30 mg/mL with 5 mM CaCl2; 0.07 M KSCN, 24% (w/v) PEG 8000, 0.075 M TAPS/NaOH pH 8.5, 19°C; stacked S-layer sheets in three-dimensional crystals; long-wavelength anomalous diffraction, molecular replacement with PDB 5N8P

B1: RsaA, S-layer protein of Caulobacter crescentus (wild type, full length) (natural protein, UniProt A0A0H3C8J1 1-1026, looked up)
chain: MAYTTAQLVTAYTNANLGKAPDAATTLTLDAYATQTQTGGLSDAAALTNTLKLVNSTTAVAIQTYQFFTGVAPSAAGLDFLVDSTTNTNDLNDAYYSKFAQENRFINFSINLATGAGAGATAFAAAYTGVSYAQTVATAYDKIIGNAVATAAGVDVAAAVAFLSRQANIDYLTAFVRANTPFTAAADIDLAVKAALIGTILNAATVSGIGGYATATAAMINDLSDGALSTDNAAGVNLFTAYPSSGVSGSTLSLTTGTDTLTGTANNDTFVAGEVAGAATLTVGDTLSGGAGTDVLNWVQAAAVTALPTGVTISGIETMNVTSGAAITLNTSSGVTGLTALNTNTSGAAQTVTAGAGQNLTATTAAQAANNVAVDGGANVTVASTGVTSGTTTVGANSAASGTVSVSVANSSTTTTGAIAVTGGTAVTVAQTAGNAVNTTLTQADVTVTGNSSTTAVTVTQTAAATAGATVAGRVNGAVTITDSAAASATTAGKIATVTLGSFGAATIDSSALTTVNLSGTGTSLGIGRGALTATPTANTLTLNVNGLTTTGAITDSEAAADDGFTTINIAGSTASSTIASLVAADATTLNISGDARVTITSHTAAALTGITVTNSVGATLGAELATGLVFTGGAGADSILLGATTKAIVMGAGDDTVTVSSATLGAGGSVNGGDGTDVLVANVNGSSFSADPAFGGFETLRVAGAAAQGSHNANGFTALQLGATAGATTFTNVAVNVGLTVLAAPTGTTTVTLANATGTSDVFNLTLSSSAALAAGTVALAGVETVNIAATDTNTTAHVDTLTLQATSAKSIVVTGNAGLNLTNTGNTAVTSFDASAVTGTGSAVTFVSANTTVGEVVTIRGGAGADSLTGSATANDTIIGGAGADTLVYTGGTDTFTGGTGADIFDINAIGTSTAFVTITDAAVGDKLDLVGISTNGAIADGAFGAAVTLGAAATLAQYLDAAAAGDGSGTSVAKWFQFGGDTYVVVDSSAGATFVSGADAVIKLTGLVTLTTSAFATEVLTLA
notes: RsaA, S-layer protein of Caulobacter crescentus CB15N (NA1000), 1,026 amino acid residues; RsaANTD is residues 1-250 and RsaACTD residues 251-1,026; Full-length protein went into crystallisation; also called SLP; wild-type RsaA; source: purified from C. crescentus CB15N (NA1000) cells by low pH exposure (HiTrap SP flow-through, HiTrap Q)
stoichiometry N: 6
